From patent publication US12460006B2, “Antibodies against integrin alpha 11 beta 1” (Momenta Pharmaceuticals, Inc., priority 2019, dated 2025)

T1: α11β1 expressed on the surface of CHO-K1 cells (Homo sapiens, UniProt Q9UKX5)
T1 construct: expressed in transfected cells; host or cells: CHO-K1
T1 sequence (Q9UKX5 23-1188): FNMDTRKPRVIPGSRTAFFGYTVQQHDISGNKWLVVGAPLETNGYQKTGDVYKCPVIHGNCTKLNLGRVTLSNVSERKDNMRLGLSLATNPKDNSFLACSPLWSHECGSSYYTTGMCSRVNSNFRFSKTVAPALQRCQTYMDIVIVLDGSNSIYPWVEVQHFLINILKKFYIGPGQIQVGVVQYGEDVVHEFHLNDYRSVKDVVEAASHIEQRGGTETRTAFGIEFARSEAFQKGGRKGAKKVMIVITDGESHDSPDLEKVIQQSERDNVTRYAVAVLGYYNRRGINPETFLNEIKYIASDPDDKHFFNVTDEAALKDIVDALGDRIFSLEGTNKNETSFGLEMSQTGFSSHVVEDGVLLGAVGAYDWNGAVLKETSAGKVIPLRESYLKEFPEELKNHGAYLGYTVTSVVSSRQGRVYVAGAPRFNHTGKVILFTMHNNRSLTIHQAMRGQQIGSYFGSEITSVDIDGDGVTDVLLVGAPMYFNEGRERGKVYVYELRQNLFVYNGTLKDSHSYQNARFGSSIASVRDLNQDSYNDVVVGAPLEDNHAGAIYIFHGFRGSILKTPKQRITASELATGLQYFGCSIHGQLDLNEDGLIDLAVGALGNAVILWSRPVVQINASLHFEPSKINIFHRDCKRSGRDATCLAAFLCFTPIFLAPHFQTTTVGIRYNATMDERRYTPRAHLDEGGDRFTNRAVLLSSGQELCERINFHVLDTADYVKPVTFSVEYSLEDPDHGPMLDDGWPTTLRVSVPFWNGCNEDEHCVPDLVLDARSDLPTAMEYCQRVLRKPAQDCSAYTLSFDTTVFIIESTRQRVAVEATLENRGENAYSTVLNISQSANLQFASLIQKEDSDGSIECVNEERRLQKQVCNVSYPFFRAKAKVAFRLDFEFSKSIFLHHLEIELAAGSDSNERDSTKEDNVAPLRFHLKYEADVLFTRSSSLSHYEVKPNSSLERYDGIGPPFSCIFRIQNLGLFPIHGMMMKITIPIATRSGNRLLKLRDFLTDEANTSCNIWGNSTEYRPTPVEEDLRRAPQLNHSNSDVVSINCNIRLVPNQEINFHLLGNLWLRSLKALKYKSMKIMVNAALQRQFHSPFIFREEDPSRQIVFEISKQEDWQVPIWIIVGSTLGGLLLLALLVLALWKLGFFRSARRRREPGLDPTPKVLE

B1: 6F9: rabbit anti-α11β1 mAb; heavy chain SEQ ID NO: 183, light chain SEQ ID NO: 184 (antibody)
heavy: METGLRWLLLVAVLKGVQCQSLEESGGDLVKPGASLTLTCTASGSSFSSTYWNCWVRQAPGKGLEWIACINAGSGTTYYASWAKGRFTVSKTSSTTVTLQMTSLTAADTATYFCTRDSDGRFSSGYYFNLWGPGTLVTVSSGQPKAPSVFPLAPCCGDTPSSTVTLGCLVKGYLPEPVTVTWNSGTLTNGVRTFPSVRQSSGLYSLSSVVSVTSSSQPVTCNVAHPATNTKVDKTVAPSTCSKPMCPPPELPGGPSVFIFPPKPKDTLMISRTPEVTCVVVDVSQDDPEVQFTWYINNEQVRTARPPLREQQFNSTIRVVSTLPIAHQDWLRGKEFKCKVHNKALPAPIEKTISKARGQPLEPKVYTMGPPREELSSRSVSLTCMINGFYPSDISVEWEKNGKAEDNYKTTPTVLDSDGSYFLYSKLSVPTSEWQRGDVFTCSVMHEALHNHYTQKSISRSPGK
light: MDTRAPTQLLGLLLLWLPGATFAQVLTQTASPVSAAVGGTVTINCQSSQSVYDNNWLAWYQQKPGQPPKLLIDDASKLTSGVSSRFKGSGSGTQFTLTISGVQCDDAATYYCQGAYYSSGWYWAFGGGTEVVVKGDPVAPTVLIFPPAADQVATGTVTIVCVANKYFPDVTVTWEVDGTTQTTGIENSKTPQNSADCTYNLSSTLTLTSTQYNSHKEYTCKVTQGTTSVVQSFNRGDC
B2: 6G4: rabbit anti-α11β1 mAb; heavy chain SEQ ID NO: 181, light chain SEQ ID NO: 182 (antibody)
heavy: METGLRWLLLVAVLKGVQCQQQLEESGGGLVKPGGTLTLTCKASGVALNPYYYMCWVRQAPGKGLEWIACVDADSSGSTYYASWAKGRFTISKTSSTTVTLKMTSLTAADTATYFCARESVDYSSVGIGYVHGTDGLWGPGTLVTVSSGQPKAPSVFPLAPCCGDTPSSTVTLGCLVKGYLPEPVTVTWNSGTLTNGVRTFPSVRQSSGLYSLSSVVSVTSSSQPVTCNVAHPATNTKVDKTVAPSTCSKPMCPPPELPGGPSVFIFPPKPKDTLMISRTPEVTCVVVDVSQDDPEVQFTWYINNEQVRTARPPLREQQFNSTIRVVSTLPIAHQDWLRGKEFKCKVHNKALPAPIEKTISKARGQPLEPKVYTMGPPREELSSRSVSLTCMINGFYPSDISVEWEKNGKAEDNYKTTPTVLDSDGSYFLYSKLSVPTSEWQRGDVFTCSVMHEALHNHYTQKSISRSPGK
light: MDTRAPTQLLGLLLLWLPGARCADIVVTQTPSSVSAAVGGTVTIKCQASQSISNYFSWYQQKPGQPPKLLIYRASTLASGVPSRFKGSGSGTEFTLTISDLECADAATYYCQCTYGRSNSNFFYGFGGGTEVVVKGDPVAPTVLIFPPAADQVATGTVTIVCVANKYFPDVTVTWEVDGTTQTTGIENSKTPQNSADCTYNLSSTLTLTSTQYNSHKEYTCKVTQGTTSVVQSFNRGDC
B3: 4E1: rabbit anti-α11β1 mAb; heavy chain SEQ ID NO: 195, light chain SEQ ID NO: 196 (antibody)
heavy: METGLRWLLLVAVLKGVQCQSLEESGGDLVKPGTSLTLSCTASGFSFGSYYYMCWVRQAPGKGLEWIACIDVGSSGDTYYASWVNGRFTISKTSSTTVTLQMTSLTAADTATYFCARDDTAAGGFGNLELWGPGTLVTVSSGQPKAPSVFPLAPCCGDTPSSTVTLGCLVKGYLPEPVTVTWNSGTLTNGVRTFPSVRQSSGLYSLSSVVSVTSSSQPVTCNVAHPATNTKVDKTVAPSTCSKPMCPPPELPGGPSVFIFPPKPKDTLMISRTPEVTCVVVDVSQDDPEVQFTWYINNEQVRTARPPLREQQFNSTIRVVSTLPIAHQDWLRGKEFKCKVHNKALPAPIEKTISKARGQPLEPKVYTMGPPREELSSRSVSLTCMINGFYPSDISVEWEKNGKAEDNYKTTPTVLDSDGSYFLYSKLSVPTSEWQRGDVFTCSVMHEALHNHYTQKSISRSPGK
light: MDTRAPTQLLGLLLLWLPGARCAFELTQTPSSVSEPVGGTVTIKCQASQSIYSYFSWYQQKPGQPPKRLIYQASTLASGVPSRFKGSGSGTDFTLTISDLECADAATYYCQNNYGRGSGSYFFGFGGGTEVVVKGDPVAPTVLIFPPAADQVATGTVTIVCVANKYFPDVTVTWEVDGTTQTTGIENSKTPQNSADCTYNLSSTLTLTSTQYNSHKEYTCKVTQGTTSVVQSFNRGDC
B4: 5D7: rabbit anti-α11β1 mAb; heavy chain SEQ ID NO: 191, light chain SEQ ID NO: 192 (antibody)
heavy: METGLRWLLLVAVLKGVQCQEQLVESGGGLVQPEGSLTLTCKASGFDFSSNAMCWVRQAPGKGLEWIACIYNGDGSTYYASWVNGRFTISKTSSTTVTLQMTSLTAADTATYFCARGLSNWNRDNLWGPGTLVTVSSGQPKAPSVFPLAPCCGDTPSSTVTLGCLVKGYLPEPVTVTWNSGTLTNGVRTFPSVRQSSGLYSLSSVVSVTSSSQPVTCNVAHPATNTKVDKTVAPSTCSKPMCPPPELPGGPSVFIFPPKPKDTLMISRTPEVTCVVVDVSQDDPEVQFTWYINNEQVRTARPPLREQQFNSTIRVVSTLPIAHQDWLRGKEFKCKVHNKALPAPIEKTISKARGQPLEPKVYTMGPPREELSSRSVSLTCMINGFYPSDISVEWEKNGKAEDNYKTTPTVLDSDGSYFLYSKLSVPTSEWQRGDVFTCSVMHEALHNHYTQKSISRSPGK
light: MDTRAPTQLLGLLLLWLPGATFAQVLTQTPSSVSAAVGGTATINCQASQSLYSPKNLAWYQQTPGQPPKLLIYSASKLASGVPSRFKGSGSGTQFTLTISGVQCDDAAIYYCQGEFSCTTAACFAFGGGTEVVVKGDPVAPTVLIFPPAADQVATGTVTIVCVANKYFPDVTVTWEVDGTTQTTGIENSKTPQNSADCTYNLSSTLTLTSTQYNSHKEYTCKVTQGTTSVVQSFNRGDC
B5: 6C7: rabbit anti-α11β1 mAb; heavy chain SEQ ID NO: 185, light chain SEQ ID NO: 186 (antibody)
heavy: METGLRWLLLVAVLKGVQCQQQLEESGGGLVKPGGTLTLTCKASGIDFSSYYYMCWVRQAPGKGLELIVCIYTSSGGTWYASWVNGRLTISRSTSLNTVDLKMTSLTAADTATYFCARGVYSGSSDYPTRLDLWGQGTLVTVSLGQPKAPSVFPLAPCCGDTPSSTVTLGCLVKGYLPEPVTVTWNSGTLTNGVRTFPSVRQSSGLYSLSSVVSVTSSSQPVTCNVAHPATNTKVDKTVAPSTCSKPMCPPPELPGGPSVFIFPPKPKDTLMISRTPEVTCVVVDVSQDDPEVQFTWYINNEQVRTARPPLREQQFNSTIRVVSTLPIAHQDWLRGKEFKCKVHNKALPAPIEKTISKARGQPLEPKVYTMGPPREELSSRSVSLTCMINGFYPSDISVEWEKNGKAEDNYKTTPTVLDSDGSYFLYSKLSVPTSEWQRGDVFTCSVMHEALHNHYTQKSISRSPGK
light: MDTSTSTALLGLLLLWLTGARCAIEMTQSPPSLSASVGETVRIRCLASEDIYSGISWYQQKPEKPPTLLISGASNLESGVPPRFSGGGSGTDYTLTIGGVQAEDVATYYCLGGYSFSSTGLTFGAGTKVEIKRDPVAPSVLLFPPSKEELTTGTATIVCVANKYFPDVTVTWEVDGTTQTTGIENSKTPQNSADCTYNLSSTLTLTSTQYNSHKEYTCKVTQGTTSVVQSFNRGDC

Biological target: human α11β1 (Homo sapiens, UniProt Q9UKX5)
Test: ELISA binding to recombinant human α11β1
Conditions: binding Yes/No
Outline: (§1)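 Direct ELISA against human or mouse α11β1 coated at 0.25 μg/mL; antibody titration 1 h at room temperature, HRP-based colorimetric read-out at 450 nm.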

Chain of human α11β1 (P05556 21-728 partner limits assumed, one chain of several): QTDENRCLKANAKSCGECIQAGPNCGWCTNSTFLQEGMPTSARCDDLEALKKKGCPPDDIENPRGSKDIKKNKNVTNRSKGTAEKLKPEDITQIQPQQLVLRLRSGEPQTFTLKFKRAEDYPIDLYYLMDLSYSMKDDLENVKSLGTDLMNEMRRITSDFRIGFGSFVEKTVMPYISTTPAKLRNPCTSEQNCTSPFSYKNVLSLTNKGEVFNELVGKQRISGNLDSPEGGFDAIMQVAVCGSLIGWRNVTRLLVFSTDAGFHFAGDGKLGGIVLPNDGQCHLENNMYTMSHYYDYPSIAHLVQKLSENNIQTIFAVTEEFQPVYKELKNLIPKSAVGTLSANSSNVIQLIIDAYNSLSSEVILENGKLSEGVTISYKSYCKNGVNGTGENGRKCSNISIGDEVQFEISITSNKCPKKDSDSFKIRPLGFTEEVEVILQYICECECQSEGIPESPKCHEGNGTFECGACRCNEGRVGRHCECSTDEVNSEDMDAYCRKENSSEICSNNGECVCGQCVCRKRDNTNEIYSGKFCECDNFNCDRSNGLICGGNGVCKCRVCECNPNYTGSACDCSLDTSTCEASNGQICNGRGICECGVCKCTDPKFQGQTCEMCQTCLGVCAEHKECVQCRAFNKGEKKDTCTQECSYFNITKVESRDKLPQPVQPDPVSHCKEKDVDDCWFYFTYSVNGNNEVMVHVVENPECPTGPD

Human α11β1 ELISA	Molecule
Yes	B1
Yes	B2
Yes	B3
Yes	B4
Yes	B5

Biological target: mouse α11β1 (Mus musculus, UniProt P61622)
Test: ELISA binding to recombinant mouse α11β1
Conditions: binding Yes/No
Outline: as §1

Chain of mouse α11β1 (P61622 23-1141 limits assumed): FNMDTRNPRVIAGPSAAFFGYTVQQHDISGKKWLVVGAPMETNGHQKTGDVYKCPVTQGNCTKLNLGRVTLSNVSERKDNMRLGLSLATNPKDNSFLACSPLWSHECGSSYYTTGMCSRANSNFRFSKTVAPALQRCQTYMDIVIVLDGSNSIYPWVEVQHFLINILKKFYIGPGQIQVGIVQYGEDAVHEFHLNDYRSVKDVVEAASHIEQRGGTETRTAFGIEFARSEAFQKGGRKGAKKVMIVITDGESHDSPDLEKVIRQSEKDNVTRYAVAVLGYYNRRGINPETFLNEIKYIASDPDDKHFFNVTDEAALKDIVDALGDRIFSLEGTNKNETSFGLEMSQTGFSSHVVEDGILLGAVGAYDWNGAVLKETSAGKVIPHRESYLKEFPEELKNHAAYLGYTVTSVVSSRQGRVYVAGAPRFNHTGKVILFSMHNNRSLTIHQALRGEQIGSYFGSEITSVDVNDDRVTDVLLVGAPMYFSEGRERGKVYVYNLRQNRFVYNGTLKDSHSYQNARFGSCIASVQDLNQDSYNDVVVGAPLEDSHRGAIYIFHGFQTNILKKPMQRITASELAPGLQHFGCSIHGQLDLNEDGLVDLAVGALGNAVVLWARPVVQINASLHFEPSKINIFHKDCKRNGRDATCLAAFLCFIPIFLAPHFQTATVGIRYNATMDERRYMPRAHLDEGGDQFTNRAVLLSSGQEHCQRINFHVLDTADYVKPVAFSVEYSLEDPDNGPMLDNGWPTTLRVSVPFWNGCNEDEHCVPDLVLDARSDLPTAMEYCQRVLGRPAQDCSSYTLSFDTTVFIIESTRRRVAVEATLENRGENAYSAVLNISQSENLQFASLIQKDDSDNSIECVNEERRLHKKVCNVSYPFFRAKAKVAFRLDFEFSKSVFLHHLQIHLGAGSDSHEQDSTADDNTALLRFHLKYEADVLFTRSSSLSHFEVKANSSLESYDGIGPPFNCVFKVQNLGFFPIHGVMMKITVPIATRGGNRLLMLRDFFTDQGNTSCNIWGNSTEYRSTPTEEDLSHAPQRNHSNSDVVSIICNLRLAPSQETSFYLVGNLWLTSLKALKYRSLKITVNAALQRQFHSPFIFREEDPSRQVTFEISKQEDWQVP
Chain of mouse α11β1 (P09055 21-728 partner limits assumed): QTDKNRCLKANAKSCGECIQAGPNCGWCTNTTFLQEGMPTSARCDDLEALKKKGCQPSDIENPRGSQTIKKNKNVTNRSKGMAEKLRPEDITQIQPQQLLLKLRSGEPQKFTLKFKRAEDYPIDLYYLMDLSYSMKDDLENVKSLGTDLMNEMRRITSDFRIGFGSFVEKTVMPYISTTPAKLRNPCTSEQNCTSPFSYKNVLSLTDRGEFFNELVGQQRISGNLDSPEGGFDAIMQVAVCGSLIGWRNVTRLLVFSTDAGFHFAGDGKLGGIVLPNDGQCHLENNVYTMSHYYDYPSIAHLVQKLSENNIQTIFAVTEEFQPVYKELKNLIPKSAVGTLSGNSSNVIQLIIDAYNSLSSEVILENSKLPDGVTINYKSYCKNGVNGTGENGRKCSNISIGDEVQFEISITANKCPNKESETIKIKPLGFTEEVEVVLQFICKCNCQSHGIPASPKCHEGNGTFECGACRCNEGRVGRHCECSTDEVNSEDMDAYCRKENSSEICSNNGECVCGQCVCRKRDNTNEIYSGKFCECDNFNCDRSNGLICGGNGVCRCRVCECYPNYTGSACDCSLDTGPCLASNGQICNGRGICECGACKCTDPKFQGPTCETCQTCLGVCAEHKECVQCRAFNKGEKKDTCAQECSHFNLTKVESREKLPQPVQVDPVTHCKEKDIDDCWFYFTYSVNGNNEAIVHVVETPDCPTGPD

Murine α11β1 ELISA	Molecule
No	B1
No	B2
No	B3
No	B4
No	B5

Test system: α1β1, α2β1 and/or α10β1
Test: Counter-screen for cross-reactivity to other collagen receptors
Assay type: binding, human
Conditions: cross-reactivity to α1β1, α2β1, α10β1
Outline: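 Cross-reactivity was checked by ELISA counter-screen on human α1β1, α2β1 and α10β1. Tested material was hybridoma clones from rats or mice immunized with α11β1, previously selected for binding to soluble human and mouse α11β1.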

Off Target	Molecule
No	B1
No	B2
No	B3
No	B4
No	B5

Biological target: T1, α11β1 expressed on the surface of CHO-K1 cells
Test: FACS antibody binding to CHO-K1 cells expressing human α11
Conditions: binding Yes/No
Outline: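 Wild-type or human α11-transfected CHO-K1 cells (endogenous β1) were incubated with antibody at varied concentrations for 30 min at 4° C, then secondary antibody (1:100) 30 min at 4° C. Cells were PFA-fixed and read by flow cytometry; binding EC50 estimated from FACS data.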

CHO-K1 FACS	Molecule
Yes	B1
Yes	B2
Yes	B3
Yes	B4
Yes	B5
